According to patent publication US20130064834A1 (published 2013):

T1: human PCSK1, myc-myc-his tagged (human, UniProt P29120 111-753, limits assumed)
T1 construct: also called hPCSK1-mmh; hPCSK1
T1 sequence: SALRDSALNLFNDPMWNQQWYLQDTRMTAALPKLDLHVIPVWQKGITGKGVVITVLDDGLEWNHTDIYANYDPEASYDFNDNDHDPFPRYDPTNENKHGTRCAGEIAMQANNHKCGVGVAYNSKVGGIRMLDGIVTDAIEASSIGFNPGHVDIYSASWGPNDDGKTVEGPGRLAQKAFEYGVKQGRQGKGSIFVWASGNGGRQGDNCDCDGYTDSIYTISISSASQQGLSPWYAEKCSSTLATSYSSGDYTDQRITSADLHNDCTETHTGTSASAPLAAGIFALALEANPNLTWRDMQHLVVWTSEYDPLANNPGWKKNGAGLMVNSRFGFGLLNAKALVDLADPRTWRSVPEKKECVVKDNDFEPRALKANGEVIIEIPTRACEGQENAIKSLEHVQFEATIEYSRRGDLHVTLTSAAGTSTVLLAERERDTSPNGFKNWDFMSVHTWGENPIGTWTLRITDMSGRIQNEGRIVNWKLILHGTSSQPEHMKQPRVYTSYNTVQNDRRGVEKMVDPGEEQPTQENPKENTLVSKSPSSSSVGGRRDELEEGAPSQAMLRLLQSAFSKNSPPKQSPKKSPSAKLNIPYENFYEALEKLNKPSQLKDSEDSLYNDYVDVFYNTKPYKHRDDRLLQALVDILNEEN

T2: human PCSK7, myc-myc-his tagged (human, UniProt Q16549 142-667, limits assumed)
T2 construct: also called hPCSK7-mmh; hPCSK7
T2 sequence: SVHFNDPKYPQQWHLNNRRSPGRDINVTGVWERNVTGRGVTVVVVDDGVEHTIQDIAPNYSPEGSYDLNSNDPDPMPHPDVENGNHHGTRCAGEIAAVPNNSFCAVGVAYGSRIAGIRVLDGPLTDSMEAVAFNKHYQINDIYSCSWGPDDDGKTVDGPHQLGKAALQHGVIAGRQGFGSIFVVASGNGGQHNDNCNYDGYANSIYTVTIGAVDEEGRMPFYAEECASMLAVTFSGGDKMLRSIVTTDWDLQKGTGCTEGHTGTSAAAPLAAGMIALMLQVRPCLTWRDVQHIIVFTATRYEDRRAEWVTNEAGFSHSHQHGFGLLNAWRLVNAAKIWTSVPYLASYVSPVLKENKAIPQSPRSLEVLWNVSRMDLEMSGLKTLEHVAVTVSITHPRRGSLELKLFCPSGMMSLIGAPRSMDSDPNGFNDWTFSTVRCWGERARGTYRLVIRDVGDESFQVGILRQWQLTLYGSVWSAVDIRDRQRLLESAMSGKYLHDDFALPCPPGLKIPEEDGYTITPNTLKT


Key:
Human PCSK9-myc-myc-his [1] = target: T3, Human PCSK9-myc-myc-his (human, UniProt Q8NBP7 31-692); test: cell-based or functional assay
Human PCSK9-myc-myc-his [2] = target: T3, Human PCSK9-myc-myc-his; test: SPR, mAb captured, 37C
Procedure: (§1) Each selected antibody was captured at a flowrate of 2 μl/min for 6 min on a goat anti-human IgG polyclonal antibody surface created through direct chemical coupling to a BIACORE™ chip to form a captured antibody surface.

Human PCSK9-myc-myc-his [3] = target: T3, Human PCSK9-myc-myc-his; test: competition ELISA vs EGF-A-hFc, pH 7.2
Procedure: (§2) Briefly, hLDLR-ecto, hLDLR EGF-A-hFc or hLDLR EGF-AB-hFc, each at 2 μg/ml, was coated on a 96-well plate in PBS buffer overnight at 4° C., and nonspecific binding sites blocked with BSA. […] The equilibrated sample solutions were transferred to receptor or receptor fragment coated plates.

hPCSK9(D374Y)-mmh [4] = target: T4, hPCSK9(D374Y)-mmh (human, UniProt Q8NBP7 31-692); test: SPR, mAb amine-coupled, 25C, pH 7.4
T4 construct: also called hPCSK(D374Y)-mmh
Source text: (§3) Briefly, mAbs were immobilized onto BIACORE™ CM5 sensor chips via amine coupling.

Human PCSK9-myc-myc-his [5] = target: T3, Human PCSK9-myc-myc-his; test: SPR, mAb amine-coupled, 25C, pH 7.4
Source text: as §3

[6] = target: T5, cynomolgus monkey (Macaca fascicularis) PCSK9, myc-myc-his tagged (cynomolgus monkey (Macaca fascicularis), UniProt A8T662 31-692 (Macaca nemestrina entry), limits assumed); test: SPR, mAb amine-coupled, 25C, pH 7.4
T5 construct: also called mfPCSK9-mmh; mfPCSK9
T5 sequence (A8T662 31-692 limits assumed): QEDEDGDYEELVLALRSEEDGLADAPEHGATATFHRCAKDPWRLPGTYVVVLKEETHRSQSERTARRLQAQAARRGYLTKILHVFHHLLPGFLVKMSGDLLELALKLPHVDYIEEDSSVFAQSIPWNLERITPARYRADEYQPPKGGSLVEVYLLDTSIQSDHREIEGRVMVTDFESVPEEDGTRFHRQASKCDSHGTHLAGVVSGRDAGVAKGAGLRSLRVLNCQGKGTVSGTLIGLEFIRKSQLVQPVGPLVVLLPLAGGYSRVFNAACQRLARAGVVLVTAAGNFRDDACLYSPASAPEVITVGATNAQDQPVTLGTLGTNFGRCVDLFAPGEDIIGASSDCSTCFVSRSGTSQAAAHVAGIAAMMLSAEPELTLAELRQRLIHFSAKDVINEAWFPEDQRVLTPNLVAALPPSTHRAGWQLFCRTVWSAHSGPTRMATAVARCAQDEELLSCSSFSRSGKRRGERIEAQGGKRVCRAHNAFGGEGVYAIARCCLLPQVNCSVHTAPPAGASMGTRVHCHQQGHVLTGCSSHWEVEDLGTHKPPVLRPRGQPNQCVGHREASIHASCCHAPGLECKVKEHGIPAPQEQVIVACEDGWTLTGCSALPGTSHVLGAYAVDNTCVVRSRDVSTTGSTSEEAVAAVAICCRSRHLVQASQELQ
Source text: as §3

Human PCSK9-myc-myc-his [7] = target: T3, Human PCSK9-myc-myc-his; test: SPR, antigen captured at low density, pH 5.5, 25C
Human PCSK9-myc-myc-his [8] = target: T3, Human PCSK9-myc-myc-his; test: competition ELISA vs EGF-AB-hFc, pH 7.2
Procedure: as §2

Human PCSK9-myc-myc-his [9] = target: T3, Human PCSK9-myc-myc-his; test: competition ELISA vs EGF-AB-hFc, pH 5.5
Procedure: as §2

hPCSK9(D374Y)-mmh [10] = target: T4, hPCSK9(D374Y)-mmh; test: SPR, mAb amine-coupled, 37C, pH 5.5
Source text: as §3

Human PCSK9-myc-myc-his [11] = target: T3, Human PCSK9-myc-myc-his; test: SPR, mAb amine-coupled, 37C, pH 5.5
Source text: as §3

[12] = target: T5, cynomolgus monkey (Macaca fascicularis) …; test: SPR, mAb amine-coupled, 37C, pH 5.5
Source text: as §3

Human PCSK9-myc-myc-his [13] = target: T3, Human PCSK9-myc-myc-his; test: SPR, antigen captured at high density, pH 7.4, 25C
hPCSK9(D374Y)-mmh [14] = target: T4, hPCSK9(D374Y)-mmh; test: competition ELISA vs EGF-AB-hFc, pH 7.2
Procedure: as §2

[15] = target: T1, human PCSK1, myc-myc-his tagged; test: ELISA, mAb coated
[16] = target: T2, human PCSK7, myc-myc-his tagged; test: ELISA, mAb coated
Human PCSK9-myc-myc-his [17] = target: T3, Human PCSK9-myc-myc-his; test: SPR, mAb captured, 25C
Procedure: as §1

[18] = target: T1, human PCSK1, myc-myc-his tagged; test: SPR, mAb captured on anti-hFc, 25C
[19] = target: T2, human PCSK7, myc-myc-his tagged; test: SPR, mAb captured on anti-hFc, 25C

| Binder | IC50, LDL uptake in HepG2 cells with 50 nM hPCSK9-mmh (Human PCSK9-myc-myc-his [1]) [nM] | IC50 (Human PCSK9-myc-myc-his [3]) [nM] | Kd (hPCSK9(D374Y)-mmh [4]) [nM] | T1/2 (hPCSK9(D374Y)-mmh [4]) [min] | Kd (Human PCSK9-myc-myc-his [5]) [nM] | T1/2 (Human PCSK9-myc-myc-his [5]) [min] | Kd [6] [nM] | T1/2 [6] [min] | Kd (Human PCSK9-myc-myc-his [7]) [nM] | T1/2 (Human PCSK9-myc-myc-his [7]) [min] | IC50 (Human PCSK9-myc-myc-his [8]) [nM] | IC50 (Human PCSK9-myc-myc-his [9]) [nM] | Kd (hPCSK9(D374Y)-mmh [10]) [nM] | T1/2 (hPCSK9(D374Y)-mmh [10]) [min] | Kd (Human PCSK9-myc-myc-his [11]) [nM] | T1/2 (Human PCSK9-myc-myc-his [11]) [min] | Kd [12] [nM] | T1/2 [12] [min] | Kd (Human PCSK9-myc-myc-his [13]) [nM] | T1/2 (Human PCSK9-myc-myc-his [13]) [min] | other results |
| --- | --- | --- | --- | --- | --- | --- | --- | --- | --- | --- | --- | --- | --- | --- | --- | --- | --- | --- | --- | --- | --- |
| H1H316P (antibody, V domains shown, Fully human mAb made in CHO cells; also called mAb316P) VH: EVQLVESGGGLVQPGGSLRLSCAASGFTFNNYAMNWVRQAPGKGLDWVSTISGSGGTTNYADSVKGRFIISRDSSKHTLYLQMNSLRAEDTAVYYCAKDSNWGNFDLWGRGTLVTVSS VL: not shown | 21.3 | < 0.125 | 2.49 | 15 | 1.26 | 36 | 1.42 | 42 | 0.188 | 58 | < 0.125 | < 0.125 | 1.56 | 5 | 0.142 | 11 | 0.044 | 5 | 0.191 | 74 | Kd (Human PCSK9-myc-myc-his [2]): 1.08 nM; T1/2 (Human PCSK9-myc-myc-his [2]): 11 min; IC50 (hPCSK9(D374Y)-mmh [14]): 0.139 nM; binding result [15]: no binding (tested: 1.2 nM); binding result [16]: no binding (tested: 1.2 nM); Kd (Human PCSK9-myc-myc-his [17]): 0.377 nM; T1/2 (Human PCSK9-myc-myc-his [17]): 42 min |
| H1M300N (antibody, V domains shown, Fully human version made in CHO cells) VH: EMQLVESGGGLVQPGGSLRLSCAASGFTFSSHWMKWVRQAPGKGLEWVANINQDGSEKYYVDSVKGRFTISRDNAKNSLFLQMNSLRAEDTAVYYCARDIVLMVYDMDYYYYGMDVWGQGTTVTVSS VL: not shown | 22.1 | 0.146 | 1.31 | 46 | 1.1 | 76 | 2.17 | 31 | 1.38 | 13 | < 0.125 | 0.447 | 28 | 1 | 11.9 | 1 | 65.2 | 0.1 | 0.065 | 507 | IC50 (hPCSK9(D374Y)-mmh [14]): 0.142 nM; binding result [18]: no binding (tested: 100 nM); binding result [19]: no binding (tested: 100 nM) |
